B1: HDV Ribozyme (parent)
chain: GGCCGGCAUGGUCCCAGCCUCCUCGCUGGCGCCGGCUGGGCAACAUUCCGAGGGGACCGUCCCCUCGGUAAUGGCGAAUGGGACCCA

Variants of: B1
Experiment: self-cleavage, relative activity (ratio to wild type); higher = more cleavage; co-transcriptional

Variant | self-cleavage
C21G C41A | 0.0573
G29U C61U | 0.122
G59U G80A | 0.295
C24A A83G | 0.626
A8U C58U | 1.15
G11U G82A | 0.0678
G6U U37A | 0.0437
C19U U69G | 0.0692
C24G G25U | 0.0773
A16U C66G | 1.26
G29A C49A | 0.136
U9G G35A | 0.782
C13G C57G | 0.107
C33G C41A | 0.185
A16G C64G | 0.807
C19A U79C | 0.107
G2A G34U | 0.0449
C18A A45G | 0.0594
U79C G80C | 0.208
C61A G80A | 0.41
C19A C62A | 0.0536

Variant | self-cleavage
G2U G80U | 0.0208
G53C C66G | 1.01
G80U G81C | 0.199
C41G C86G | 0.914
U46A A77U | 0.115
C44A C62A | 0.708
C15A G50U | 0.674
C22G C84G | 0.0923
U20A A87G | 0.0831
U20A G39U | 0.0852
U9G A51C | 1.03
C7G A87G | 0.381
C22G C61U | 0.0723
A83G C85G | 1.12
C75G C84U | 0.0978
C3G A77U | 0.0297
C19U C84G | 0.0332
C21U C44G | 0.424
U69C A87U | 0.993
G40C C75G | 0.166
C21G C75G | 0.0426

Variant | self-cleavage
U37A C85G | 0.0346
G38U C57A | 0.323
U37C G59C | 1.16
G50U U72A | 0.554
A51C G52C | 0.332
U20G A87G | 0.282
G59C U79G | 0.712
C32A G54A | 0.212
G6C G67U | 0.268
C14U C30G | 0.0923
C18A G73U | 0.0941
G39A G74C | 0.147
C49A C75G | 0.128
U23C C63A | 0.86
G11A G31C | 0.0997
U27G C36A | 0.0639
G50C G54A | 0.369
G34U G39A | 0.174
C57G G73C | 0.495
G53U U69C | 0.931
G38C U72G | 0

Variant | self-cleavage
U47C C57U | 0.712
A16C G59U | 0.808
A43G C61U | 0.739
U46A A70U | 0.587
C7A C30G | 0.0791
G55U G67U | 1.07
C15G U65G | 0.886
G29U A77U | 0.117
C7A A83C | 0.0923
G39C G50C | 0.104
C4A C18A | 0.0277
G6U C33G | 0.196
G1A C4A | 0.166
C15U U37C | 0.923
U27G U47A | 0.697
G10U G11U | 0.344
C18G A45U | 0.217
G10U G25C | 0.111
C63U U79A | 0.997
U47C G82C | 0.185
